Target: T1, Shp1/Ubx1 (purified) (S. cerevisiae, UniProt P34223 1-423)
T1 construct: Shp1/Ubx1, UBX-family cofactor of Cdc48, S. cerevisiae; also called Shp1/Uxb1; source: purified
T1 sequence (looked up): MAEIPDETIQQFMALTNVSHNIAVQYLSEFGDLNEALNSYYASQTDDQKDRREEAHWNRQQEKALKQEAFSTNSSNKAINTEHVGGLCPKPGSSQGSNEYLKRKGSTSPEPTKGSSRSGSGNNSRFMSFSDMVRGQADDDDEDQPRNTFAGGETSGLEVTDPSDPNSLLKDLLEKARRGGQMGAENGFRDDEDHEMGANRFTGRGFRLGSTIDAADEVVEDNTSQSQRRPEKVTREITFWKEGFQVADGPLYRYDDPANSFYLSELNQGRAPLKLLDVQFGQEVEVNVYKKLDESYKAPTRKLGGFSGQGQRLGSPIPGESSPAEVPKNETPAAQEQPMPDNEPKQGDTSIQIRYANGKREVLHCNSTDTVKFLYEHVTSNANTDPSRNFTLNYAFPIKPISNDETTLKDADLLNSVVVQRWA
Test: ITC; 25 °C; 220 μM Shp1 injected into 16 μM Cdc48-NTD (WT or C115S); 2 μL injections, 150 s spacing; Malvern MicroCal PEAQ-ITC
Conditions: both partners purified

Kd: 14.2 µM
B1: Cdc48-NTD-WT (domain or fragment)
chain: MGEEHKPLLDASGVDPREEDKTATAILRRKKKDNMLLVDDAINDDNSVIAINSNTMDKLELFRGDTVLVKGKKRKDTVLIVLIDDELEDGACRINRVVRNNLRIRLGDLVTIHPCPDIKYATRISVLPIADTIEGITGNLFDVFLKPYFVEAYRPVRKGDHFVVRGGMRQVEFKVVDVEPEEYAVVAQDTIIHWEGEPINREDEENNMN
modifications: Construct limits are not printed. Taken by convention as the equivalent of human p97 N domain 1-199, using the +10 offset shown by Cys209 hVCP = Cys219 Cdc48.
